Test results as given in patent publication CN113603773A (FIRST HOSPITAL CHINA MEDICAL UNIV, dated 2021).

Experiments:
人源淀粉样蛋白42 Aβ42 单体 = target: T1, 人源淀粉样蛋白42 Aβ42 单体 (human, UniProt P05067 672-713); assay: ELISA, Aβ coated at 5 μg/mL, 7B8 diluted 1:20,000, OD450
T1 construct: domain: Aβ42; Monomer preparation; also called Aβ42 mon

人源淀粉样蛋白42 Aβ42 寡聚体 = target: T2, 人源淀粉样蛋白42 Aβ42 寡聚体 (human, UniProt P05067 672-713); assay: dot blot on nitrocellulose, ECL
T2 construct: domain: Aβ42; Oligomer preparation; also called Aβ42 oli
T2 sequence (P05067 672-713 limits assumed): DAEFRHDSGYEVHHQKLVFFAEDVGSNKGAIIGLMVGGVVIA

人源淀粉样蛋白42 Aβ42 纤维体 = target: T3, 人源淀粉样蛋白42 Aβ42 纤维体 (human, UniProt P05067 672-713); assay: dot blot on nitrocellulose, ECL
T3 construct: domain: Aβ42; Fibril preparation; also called Aβ42 fib
T3 sequence (P05067 672-713 limits assumed): as above

Measured: binding result

T1 sequence (P05067 672-713 limits assumed): as above

B1: 靶向淀粉样蛋白的单克隆抗体7B8 (antibody, mouse IgG1, V domains shown)
VH: QVQLQQPGAELVKPGASVKLSCKTSDYSFTSYWMHWVKQRPGQGLEWIGEINPSNGRKKYNEKFKSKATLTVDTSSSTAYMQLSSLTSEDSAVYYCAREGRGYWGQGTTLTVSS
VL: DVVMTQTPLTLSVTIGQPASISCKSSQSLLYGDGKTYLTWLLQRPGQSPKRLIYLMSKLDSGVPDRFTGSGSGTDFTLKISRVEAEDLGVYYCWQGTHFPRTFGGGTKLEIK
notes: also called 抗Aβ3-10的单克隆抗体
binds: all assays above
